Changes are numbered by the printed parent chain.
B1: NRP1-26 (VHH)
VHH: EVQLVESGGGLVQPGGSLRLSCAASGRTFRPYRMGWFRQAPGKEREWISTIYSNGHTYYADSVKGRFTISADNSKNTAYLQMNSLKPEDTAVYYCAAQRRWSQDWGQGTLVTVSS
B2: NRP1-54 (VHH)
VHH: EVQLVESGGGLVQPGGSLRLSCAASGIAFRIRTMGWFRQAPGKEREFVAGISRSGASTAYADSVKGRFTISADNSKNTAYLQMNSLKPEDTAVYYCAARRIVNVEGAYRDWGQGTLVTVSS
B3: NRP1-19 (VHH)
VHH: EVQLVESGGGLVQPGGSLRLSCAASGIAFRIRTMGWFRQAPGKEREFVAGISRSGASTAYADSVKGRFTISADNSKNTAYLQMNSLKPEDTAVYYCTTDRWYSSNWWGQGTLVTVSS
B4: NRP1-36 (VHH)
VHH: EVQLVESGGGLVQPGGSLRLSCAASGFPVNRYSMGWFRQAPGKEREFVATITVGGSTYYADSVKGRFTISADNSKNTAYLQMNSLKPEDTAVYYCARQFGAWLGEVVGPMDVWGQGTLVTVSS
B5: NRP1-60 (VHH)
VHH: EVQLVESGGGLVQPGGSLRLSCAASGNIFINNAMGWFRQAPGKERELVAAISGRSGNTYYADSVKGRFTISADNSKNTAYLQMNSLKPEDTAVYYCAARRIVNVEGAYRDWGQGTLVTVSS
B6: NRP1-64 (VHH)
VHH: EVQLVESGGGLVQPGGSLRLSCAASGSTFRGAAMGWFRQAPGKEREWVGTISSDGTTKYADSVKGRFTISADNSKNTAYLQMNSLKPEDTAVYYCAADRVLYYSDSRYYTGSNWGQGTLVTVSS
B7: NRP1-21 (VHH)
VHH: EVQLVESGGGLVQPGGSLRLSCAASGRSRYGMGWFRQAPGKEREFVAAITRSGKTTYYADSVKGRFTISADNSKNTAYLQMNSLKPEDTAVYYCARRLLSGSPSRSYYFDYWGQGTLVTVSS
B8: NRP1-20 (VHH)
VHH: EVQLVESGGGLVQPGGSLRLSCAASGSTFSLFAMGWFRQAPGKEREFVAAISRSGGLTSYADSVKGRFTISADNSKNTAYLQMNSLKPEDTAVYYCAKAAGDWTYDEDYYYMDVWGQGTLVTVSS
B9: NRP1-69 (VHH)
VHH: EVQLVESGGGLVQPGGSLRLSCAASGFNFNWYPMGWFRQAPGKEREWVGTINSGGSTSYADSVKGRFTISADNSKNTAYLQMNSLKPEDTAVYYCARLPPRGSYYYYYYGMDVWGQGTLVTVSS
B10: NRP1-40 (VHH)
VHH: EVQLVESGGGLVQPGGSLRLSCAASGSITSFNAMGWFRQAPGKERELVASINWSGARTLYADSVKGRFTISADNSKNTAYLQMNSLKPEDTAVYYCASARYYGSGRHFDYWGQGTLVTVSS
B11: NRP1-67 (VHH)
VHH: EVQLVESGGGLVQPGGSLRLSCAASGLYLHSSAMGWFRQAPGKEREFVAAISSSDGSTEYADSVKGRFTISADNSKNTAYLQMNSLKPEDTAVYYCASVRYYDYWSGYYTPTHAGYFESWGQGTLVTVSS
B12: NRP1-56 (VHH)
VHH: EVQLVESGGGLVQPGGSLRLSCAASGRTFSSYRMGWFRQAPGKEREFVASIRSSGTTYADSVKGRFTISADNSKNTAYLQMNSLKPEDTAVYYCARDTLGRASSSTDWGQGTLVTVSS
B13: NRP1-68 (VHH)
VHH: EVQLVESGGGLVQPGGSLRLSCAASGNIFINNAMGWFRQAPGKERELVAAITSSSGRRWYADSVKGRFTISADNSKNTAYLQMNSLKPEDTAVYYCTTDRWYSSNWWGQGTLVTVSS
B14: NRP1-73 (VHH)
VHH: EVQLVESGGGLVQPGGSLRLSCAASGFTFSGNWMGWFRQAPGKERELVAVILRGGSTNYADSVKGRFTISADNSKNTAYLQMNSLKPEDTAVYYCAVKIYSGSYSSPPGYNWGQGTLVTVSS
B15: NRP1-42 (VHH)
VHH: EVQLVESGGGLVQPGGSLRLSCAASGRTISNYDMGWFRQAPGKEREWVASINWGDGNTYYADSVKGRFTISADNSKNTAYLQMNSLKPEDTAVYYCARAPTYYYDSSGYYYAYWGQGTLVTVSS
B16: NRP1-3 (VHH)
VHH: EVQLVESGGGLVQPGGSLRLSCAASGEPTFSSVAMGWFRQAPGKEREWVAEIYPSGSTVYADSVKGRFTISADNSKNTAYLQMNSLKPEDTAVYYCAKTNWNDWGAFDIWGQGTLVTVSS
B17: NRP1-66 (VHH)
VHH: EVQLVESGGGLVQPGGSLRLSCAASGRTFRPYRMGWFRQAPGKERELVAAITSGTHKDYADSVKGRFTISADNSKNTAYLQMNSLKPEDTAVYYCAADYSGSYTSLWSRPERLWGQGTLVTVSS
B18: NRP1-31 (VHH)
VHH: EVQLVESGGGLVQPGGSLRLSCAASGLTFRRYDMGWFRQAPGKERELVAIKFSGGSTRYADSVKGRFTISADNSKNTAYLQMNSLKPEDTAVYYCATSSGRVPAALNWGQGTLVTVSS
B19: NRP1-32 (VHH)
VHH: B18 VHH with K51I, S70I, S74N, T90N
B20: NRP1-39 (VHH)
VHH: EVQLVESGGGLVQPGGSLRLSCAASGRTFSGDVMGWFRQAPGKEREFVAAINYSGRSINYADSVKGRFTISADNSKNTAYLQMNSLKPEDTAVYYCARETLWLKRYWGQGTLVTVSS
B21: NRP1-30 (VHH)
VHH: EVQLVESGGGLVQPGGSLRLSCAASGRTLSSYNMGWFRQAPGKEREFVARIWPGGGTTYADSVKGRFTISADNSKNTAYLQMNSLKPEDTAVYYCARDYFGSGSYYDWGQGTLVTVSS
B22: NRP1-55 (VHH)
VHH: EVQLVESGGGLVQPGGSLRLSCAASGFTLDYYVMGWFRQAPGKEREWVAFISGSGSKFYADSVKGRFTISADNSKNTAYLQMNSLKPEDTAVYYCVIQHFWSGYDDDYWGQGTLVTVSS
B23: NRP1-38 (VHH)
VHH: EVQLVESGGGLVQPGGSLRLSCAASGFTFGSTTMGWFRQAPGKEREFVATMRWSTGSTVYADSVKGRFTISADNSKNTAYLQMNSLKPEDTAVYYCAVRGDWWAYWTPWGQGTLVTVSS
B24: NRP1-24 (VHH)
VHH: EVQLVESGGGLVQPGGSLRLSCAASGFKFNDSYMGWFRQAPGKEREFVATIWWTFDAPYYADSVKGRFTISADNSKNTAYLQMNSLKPEDTAVYYCAVKERSTGWDFAWGQGTLVTVSS
B25: NRP1-34 (VHH)
VHH: EVQLVESGGGLVQPGGSLRLSCAASGYTYRKYCMGWFRQAPGKEREWVAAISRSGNLKSYADSVKGRFTISADNSKNTAYLQMNSLKPEDTAVYYCAIKRWPVDTRRRRDMVVGCPGRDEYEWGQGTLVTVSS
B26: NRP1-52 (VHH)
VHH: EVQLVESGGGLVQPGGSLRLSCAASGFTFSWYPMGWFRQAPGKEREFVAAISPSGSTDYADSVKGRFTISADNSKNTAYLQMNSLKPEDTAVYYCARDPNYDFWSGYYSSEHYFDYWGQGTLVTVSS
B27: NRP1-5 (VHH)
VHH: EVQLVESGGGLVQPGGSLRLSCAASGNIDRLYVMGWFRQAPGKEREFVAAINWSSGTTVYADSVKGRFTISADNSKNTAYLQMNSLKPEDTAVYYCARSYSSLFRFDYWGQGTLVTVSS
B28: NRP1-63 (VHH)
VHH: EVQLVESGGGLVQPGGSLRLSCAASGTFGSYTMGWFRQAPGKERELVATIWWTFDAPYYADSVKGRFTISADNSKNTAYLQMNSLKPEDTAVYYCAAYQAGWGDWGQGTLVTVSS
B29: NRP1-29 (VHH)
VHH: EVQLVESGGGLVQPGGSLRLSCAASGFTLDNYAMGWFRQAPGKEREFVARITSGGDTTYYADSVKGRFTISADNSKNTAYLQMNSLKPEDTAVYYCARAYGRGTYDWGQGTLVTVSS
B30: NRP1-28 (VHH)
VHH: EVQLVESGGGLVQPGGSLRLSCAASGFTRSYYTMGWFRQAPGKEREFVAAMNWSGSSTVYADSVKGRFTISADNSKNTAYLQMNSLKPEDTAVYYCAKDTGSPKNYYYYYGMDVWGQGTLVTVSS
B31: NRP1-57 (VHH)
VHH: EVQLVESGGGLVQPGGSLRLSCAASGFTFSNSGMGWFRQAPGKERELVARITRGGRTYADSVKGRFTISADNSKNTAYLQMNSLKPEDTAVYYCAARRIVNVEGAYRDWGQGTLVTVSS

Target: T1, neuropilin-1 (NRP1) on HEK293 cells overexpressing NRP1 (UniProt O14786 22-923, limits assumed)
T1 construct: whole, on cells
Test: flow cytometry, HEK293-NRP1 vs HEK293

Binder | 100 nM FACS (MFI Ratio)
B1 | 0.9
B2 | 0.6
B3 | 420
B4 | 3
B5 | 1
B6 | 0.8
B7 | 1
B8 | 50.9
B9 | 8.2
B10 | 16.7
B11 | 2.1
B12 | 5.4
B13 | 4.9
B14 | 5.9
B15 | 4
B16 | 13.4

Binder | 100 nM FACS (MFI Ratio)
B17 | 1.1
B18 | 5.7
B19 | 0.3
B20 | 5.6
B21 | 40.2
B22 | 2.7
B23 | 10.5
B24 | 6.4
B25 | 612
B26 | 10.7
B27 | 14.8
B28 | 8.3
B29 | 26
B30 | 33
B31 | 0.1

— patent US20230265198A1 (TWIST BIOSCIENCE, published 2023)
